Measurements from the RNAGym collection of RNA variant scans (doi:10.1073/pnas.2313332121).

B1: TPR t1 (parent)
chain: GACCAAUCUGCCCUCAGAGCUCGAGAACAUCUUCGGAUGCAGAGGAGGCAGGCUUCGGUGGCGCGAUAGCGCCAACGUCCUCAACCUCCAAUGCAUCCCACCACAUGAUGAUGCCUGAAGAGCCUUGGUUUUUUG

Variants of: B1
Assay: polymerase ribozyme fitness, log enrichment relative to wild type (log ratio); higher = more active; in vitro selection for triplet polymerase activity
How it was run: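 Both subunits of a heterodimeric triplet polymerase ribozyme were given their own mutant library, built by PCR and transcribed. Each library was annealed with a biotinylated primer, the partner subunit and triplets, incubated frozen at −7 °C, and its extended constructs gel-excised, captured on streptavidin beads and amplified by RT-PCR, all in one round done in triplicate. Fitness is the logarithm of genotype enrichment relative to wild-type enrichment, with replicates averaged by inverse-variance weighting. That logarithm is base 2, and Illumina-sequenced genotypes needed ≥10 input reads and ≥1 read per output.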

Variant | polymerase ribozyme fitness (log ratio)
C56U C72G A83G C123U | -1.18
C56U U96C C114G | -3.1
C56G G61U C73U | -3.17
C56G A95G A111U | -2.63
C56G C89U | -0.286
C56G G77A C102U U116C | -3.2
C56U G60U | -3.21
C56U G60A | -3.37
C56U C79U U92C U112A | -0.412
C56G G113A | -1.08
C56G G110U G117A | -4.5
C56U U81G U112G C124G | -0.448
C56A G69A A84G A121C | -3.85
C56U U116G C123U | -1.77
C56U G63C C94U | -5.48
C56A C82G A91C G93C | -3.53
G57A A90C C104A G113C G117C | -6.59
C56A U59G | -1.14
G57A A103C G120C C124A | -4.81
G57A C97U | -1.83
C56U U59A | -0.76

Variant | polymerase ribozyme fitness (log ratio)
C56G A74U G110A U116G C124G G135U | -5.19
C56A G71U C85U C102A C124U | -4.27
C56U U67C | -4.67
C56U U67A | -5.79
C56G G58U A90U | -1.92
C56G C98A | -3.95
C56G A66U | -1.02
C56U G61C C97U A103U C123G | -7.29
G57A C79U C102G G107U C115G C124U U129G | -5.93
C56U G69C C114G | -6.88
C56G C79A C115A U131A | -0.673
G57A C80U | -1.38
C56G U59C | -1.57
C56A G77C C98U G128A | -3.89
C56G U81G | -2.07
C56G C79U U92A | -3.45
C56A C99U A121C | -2.01
G57A C89U U130C | -0.888
C56A C94G C101A U116G | -4.75
C56U C70U U132C | -0.908
G57A C62U | -0.892

Variant | polymerase ribozyme fitness (log ratio)
C56G A91C C123A | 0.632
C56G A91C G117C A119G | -1.73
C56U C72G C88A | -3.53
C56A G69U A108G U112C G117A U134C | -3.02
C56U C86U | -0.265
C56A U92G C101G A121G | -4.49
C56U U116A G117C | -1.64
C56A C79G | -0.642
C56U C73U A105U | -2.37
C56U G117C | -3.64
C56U G77U C101A | -1.15
C56G G107U | -5.02
G57A C82A | -0.596
C56U G110A | -0.719
C56G C97A | -5.24
C56A C82U | -0.413
C56A G69U C79U A100U A103C | -3.37
C56U A68U C70U U92C C104U C124U | -7.15
G57A C82A C102A | -4.09
C56U C64U A74G | -3.32
C56A G135U | -1.7

Variant | polymerase ribozyme fitness (log ratio)
C56G G110U A111G | -2.16
C56G A84G | -1.43
C56G U130C | -1.02
C56G C72G C82A C114U | -4.76
C56A U81A A83C | -2.85
C56A C97G | -4.2
C56A G63A C89U | -3.22
C56U G122U | -0.129
C56A C72G U106A | -1.22
C56U C72U U116C G117U G120U | -3.95
C56U G69A U78G A83C | -4.4
C56U A74G G110A U112A | -2.67
G57A C94G G113A | -3.76
C56A U78G | -0.153
C56U C124U | 1.6
C56G C97A G122A | -4.86
C56U C72U C79U C101A | -1.28
C56A G60U G113A | -1.2
C56G A90U U92G C97U | -2.65
C56G G57U G65A C101G A111C | -6.81
C56U C80A C97U | -2.71
